Results as given in US20120238493A1 (INDIANA UNIVERSITY RESEARCH AND TECHNOLOGY, published 2012).
Read-outs that look alike come from different tables or passages of the source. *1 amine or outer side, *2 acyl side, *3 side chain or, on linkers, in order; H or OH if unused. Where no end group is shown, it is not given here. Side-chain parts run from the residue outwards. [ ]: non-standard residue; d: D form. The star is where a group is joined. γGlu = O=C(O)[C@H](CCC(=O)[*:2])N[*:1]; Palmitoyl = CCCCCCCCCCCCCCCC(=O)*; Suc = O=C(CCC(=O)[*:2])[*:1]; Aib = CC(C)(N)C(=O)O; βAla = NCCC(=O)O

T1: GIP receptor (UniProt P48546 22-466, limits assumed)
T1 sequence (looked up): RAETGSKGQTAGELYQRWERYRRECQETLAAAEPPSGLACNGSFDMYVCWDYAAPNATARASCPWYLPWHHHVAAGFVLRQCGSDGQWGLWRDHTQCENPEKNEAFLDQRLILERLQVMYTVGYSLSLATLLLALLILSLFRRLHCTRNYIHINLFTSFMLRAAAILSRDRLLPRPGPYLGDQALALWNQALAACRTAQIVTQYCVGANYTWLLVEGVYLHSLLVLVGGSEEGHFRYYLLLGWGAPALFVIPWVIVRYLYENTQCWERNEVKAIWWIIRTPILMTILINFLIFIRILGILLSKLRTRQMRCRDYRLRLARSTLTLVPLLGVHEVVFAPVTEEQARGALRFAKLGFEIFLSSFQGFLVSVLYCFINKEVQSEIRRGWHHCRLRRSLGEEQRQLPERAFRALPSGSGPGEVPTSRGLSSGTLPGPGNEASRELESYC


How the values were obtained:
Assay in all cases: cell-based or functional assay
[1] = target: T2, glucagon receptor (UniProt P47871 26-477, limits assumed)
[2] = target: T3, GLP-1 receptor (UniProt P43220 24-463, limits assumed)
Target sequence in this assay (P43220 24-463 limits assumed): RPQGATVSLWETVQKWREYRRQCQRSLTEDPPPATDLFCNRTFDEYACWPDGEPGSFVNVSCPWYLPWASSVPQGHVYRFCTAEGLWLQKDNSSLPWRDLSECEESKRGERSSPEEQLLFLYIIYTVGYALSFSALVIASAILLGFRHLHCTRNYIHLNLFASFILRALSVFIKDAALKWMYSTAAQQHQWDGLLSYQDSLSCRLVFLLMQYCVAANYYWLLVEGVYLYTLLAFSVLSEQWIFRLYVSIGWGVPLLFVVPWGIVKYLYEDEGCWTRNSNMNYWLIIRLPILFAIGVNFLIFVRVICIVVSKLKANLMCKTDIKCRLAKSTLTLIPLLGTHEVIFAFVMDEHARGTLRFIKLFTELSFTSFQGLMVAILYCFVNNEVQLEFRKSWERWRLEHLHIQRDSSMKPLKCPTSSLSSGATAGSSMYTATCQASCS

[3] = target: T1, GIP receptor
[4] = target: T2, glucagon receptor; remark: listed apart in the source
[5] = target: T3, GLP-1 receptor; remark: listed apart in the source
[6] = target: T1, GIP receptor; remark: listed apart in the source
[7] = target: T2, glucagon receptor; remark: listed apart in the source
[8] = target: T3, GLP-1 receptor; remark: listed apart in the source
[9] = target: T1, GIP receptor; remark: listed apart in the source

T2 sequence (P47871 26-477 limits assumed): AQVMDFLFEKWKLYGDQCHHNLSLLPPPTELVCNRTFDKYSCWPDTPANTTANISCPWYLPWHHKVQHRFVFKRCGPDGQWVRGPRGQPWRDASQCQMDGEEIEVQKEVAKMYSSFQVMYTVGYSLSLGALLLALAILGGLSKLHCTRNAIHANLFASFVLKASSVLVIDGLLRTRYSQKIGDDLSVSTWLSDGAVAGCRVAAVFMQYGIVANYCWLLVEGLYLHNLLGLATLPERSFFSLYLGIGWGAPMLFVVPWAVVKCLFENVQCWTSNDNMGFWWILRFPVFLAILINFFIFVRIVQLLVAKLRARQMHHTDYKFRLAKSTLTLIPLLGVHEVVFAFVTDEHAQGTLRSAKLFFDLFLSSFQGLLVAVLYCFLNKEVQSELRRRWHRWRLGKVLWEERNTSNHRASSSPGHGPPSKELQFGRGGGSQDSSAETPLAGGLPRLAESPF

Binder | EC50 (cAMP reporter) [1] [pM] | EC50 (cAMP reporter) [2] [pM] | EC50 (cAMP reporter) [3] [pM] | EC50 (cAMP reporter) [7] [pM] | EC50 (cAMP reporter) [8] [pM] | EC50 (cAMP reporter) [9] [pM] | also measured
Y[Aib]EGTFTSDYSIYLDKQAA[Aib]EFVNWLLAGGPSSGAPPPSK(Palmitoyl)G-NH2 [peptide of SEQ ID NO: 139] | 203 | 5 | 1 |  |  |  | 
Y[Aib]EGTFTSDYSIYLDKQAA[Aib]EFVNWLLAGGPSSGAPPPSK([Suc-Palmitoyl])G-NH2 [peptide of SEQ ID NO: 140] | 77 | 1 | 1 |  |  |  | 
Y[Aib]EGTFTSDYSIYLDKQAA[Aib]EFVNWLLAGGPSSGAPPPSK([βAla-Suc-Palmitoyl])G-NH2 [peptide of SEQ ID NO: 141] | 58 | 1 | 2 |  |  |  | 
Y[Aib]EGTFTSDYSIYLDKQAA[Aib]EFVNWLLAGGPSSGAPPPSK([Suc-C18])G-NH2 [peptide of SEQ ID NO: 142] | 121 | 4 | 1 |  |  |  | 
YXEGTFTSDXSIYLDKQAAXEFVNWLLAGGPSSGAPPPS (aib at 2 and 20; 4-aminoPhe at 10 acylated F(4-aminoγEγEC16); NH2) [peptide of SEQ ID NO: 143] | 165 | 2 | 3 |  |  |  | 
YXEGTFTSDXSIYLDKQAAXEFVNWLLAGGPSSGAPPPS (aib at 2 and 20; 4-aminoPhe at 10, F(4amino-succinoylC16); NH2) [peptide of SEQ ID NO: 144] | > 500 | 4 | 13 |  |  |  | 
HXQGTFTSDKSKYLDERAAQDFVQWLLDGGPSSGAPPPS (aib at 2; Lys10 carrying two acylations in a branched formation, K*K(rEC16)2; amide) [dual acylated peptide of SEQ ID NO: 160] |  |  |  |  |  |  | EC50 (cAMP, nmole) [4]: 0.024 nmol; EC50 (cAMP, nmole) [5]: 0.007 nmol; EC50 (cAMP, nmole) [6]: 0.015 nmol
H[Aib]QGTFTSDYSKYLDERAAQDFVQWLLDGGPSSGAPPPSK-NH2 (also: Lys40 branched dual acylation K*K(γE-C16)2) [dual acylated peptide of SEQ ID NO: 161] |  |  |  |  |  |  | EC50 (cAMP, nmole) [4]: 0.011 nmol; EC50 (cAMP, nmole) [5]: 0.007 nmol; EC50 (cAMP, nmole) [6]: 0.01 nmol
HXQGTFTSDKSKYLDERAAQDFVQWLLDGGPSSGAPPPS (aib at 2; Lys10 carrying two acylations in a linear formation, K*(C12-rEC16); amide) [dual acylated peptide of SEQ ID NO: 162] |  |  |  |  |  |  | EC50 (cAMP, nmole) [4]: 0.008 nmol; EC50 (cAMP, nmole) [5]: 0.003 nmol; EC50 (cAMP, nmole) [6]: 0.033 nmol
H[Aib]QGTFTSDYSKYLDERAAQDFVQWLLAGGPSSGAPPPSK([γGlu-γGlu-Palmitoyl])G-NH2 [peptide of SEQ ID NO: 203] |  |  |  | 3 | 1 | 7 | 
H[Aib]QGTFTSDYSKYLDERAAQDFVQWLLDAGPSSGAPPPSK([γGlu-γGlu-Palmitoyl])G-NH2 [peptide of SEQ ID NO: 204] |  |  |  | 3 | 1 | 69 | 
H[Aib]QGTFTSDK([γGlu-Palmitoyl])SKYLDERAAQDFVQWLLDGGPSSGAPPPSG-NH2 (N-terminus assumed; SMILES CCCCCCCCCCCCCCCC(=O)N[C@@H](CCC(=O)NCCCC[C@H](NC(=O)[C@H](CC(=O)O)NC(=O)[C@H](CO)NC(=O)[C@@H](NC(=O)[C@H](Cc1ccccc1)NC(=O)[C@@H](NC(=O)CNC(=O)[C@H](CCC(N)=O)NC(=O)C(C)(C)NC(=O)[C@@H](N)Cc1c[nH]cn1)[C@@H](C)O)[C@@H](C)O)C(=O)N[C@@H](CO)C(=O)N[C@@H](CCCCN)C(=O)N[C@@H](Cc1ccc(O)cc1)C(=O)N[C@@H](CC(C)C)C(=O)N[C@@H](CC(=O)O)C(=O)N[C@@H](CCC(=O)O)C(=O)N[C@@H](CCCNC(=N)N)C(=O)N[C@@H](C)C(=O)N[C@@H](C)C(=O)N[C@@H](CCC(N)=O)C(=O)N[C@@H](CC(=O)O)C(=O)N[C@@H](Cc1ccccc1)C(=O)N[C@H](C(=O)N[C@@H](CCC(N)=O)C(=O)N[C@@H](Cc1c[nH]c2ccccc12)C(=O)N[C@@H](CC(C)C)C(=O)N[C@@H](CC(C)C)C(=O)N[C@@H](CC(=O)O)C(=O)NCC(=O)NCC(=O)N1CCC[C@H]1C(=O)N[C@@H](CO)C(=O)N[C@@H](CO)C(=O)NCC(=O)N[C@@H](C)C(=O)N1CCC[C@H]1C(=O)N1CCC[C@H]1C(=O)N1CCC[C@H]1C(=O)N[C@@H](CO)C(=O)NCC(N)=O)C(C)C)C(=O)O) [peptide of SEQ ID NO: 205] |  |  |  | 5 | 2 | 4 | 
H[Aib]QGTFTSDK([γGlu-γGlu-Palmitoyl])SKYLDERAAQDFVQWLLDGGPSSGAPPPSG-NH2 (N-terminus assumed; SMILES CCCCCCCCCCCCCCCC(=O)N[C@@H](CCC(=O)N[C@@H](CCC(=O)NCCCC[C@H](NC(=O)[C@H](CC(=O)O)NC(=O)[C@H](CO)NC(=O)[C@@H](NC(=O)[C@H](Cc1ccccc1)NC(=O)[C@@H](NC(=O)CNC(=O)[C@H](CCC(N)=O)NC(=O)C(C)(C)NC(=O)[C@@H](N)Cc1c[nH]cn1)[C@@H](C)O)[C@@H](C)O)C(=O)N[C@@H](CO)C(=O)N[C@@H](CCCCN)C(=O)N[C@@H](Cc1ccc(O)cc1)C(=O)N[C@@H](CC(C)C)C(=O)N[C@@H](CC(=O)O)C(=O)N[C@@H](CCC(=O)O)C(=O)N[C@@H](CCCNC(=N)N)C(=O)N[C@@H](C)C(=O)N[C@@H](C)C(=O)N[C@@H](CCC(N)=O)C(=O)N[C@@H](CC(=O)O)C(=O)N[C@@H](Cc1ccccc1)C(=O)N[C@H](C(=O)N[C@@H](CCC(N)=O)C(=O)N[C@@H](Cc1c[nH]c2ccccc12)C(=O)N[C@@H](CC(C)C)C(=O)N[C@@H](CC(C)C)C(=O)N[C@@H](CC(=O)O)C(=O)NCC(=O)NCC(=O)N1CCC[C@H]1C(=O)N[C@@H](CO)C(=O)N[C@@H](CO)C(=O)NCC(=O)N[C@@H](C)C(=O)N1CCC[C@H]1C(=O)N1CCC[C@H]1C(=O)N1CCC[C@H]1C(=O)N[C@@H](CO)C(=O)NCC(N)=O)C(C)C)C(=O)O)C(=O)O) [peptide of SEQ ID NO: 207] |  |  |  | 5 | 2 | 15 | 
